Data published in the supplement of paper PMC9112550, “Optimization of the antimicrobial peptide Bac7 by deep mutational scanning” (BMC Biology, 2022).

System: Escherichia coli TOP10
Experiment: shrunken log2 fold change of peptide-encoding DNA abundance (4.5 h post-induction vs induction); higher = less antimicrobial activity (less host growth inhibition)
Settings: time post-induction: 4.5 h; library: site-saturation at positions 5, 18, 19, 20
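Note: peptides expressed intracellularly from a pBAD plasmid library in pooled LB shake-flask culture, induced with 0.3% L-arabinose, DNA abundance read by NGS, three biological replicates, DESeq2 with apeglm shrinkage.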

Point of comparison: RRIRQRPPRLPRPRPRPVGLPRP, “shrunken log2 fold change” value 0.35. Against it:
- RRIRHRPPRLPRPRPRPCWMPRP — lower, -0.032
- RRIRFRPPRLPRPRPRPDNIPRP — lower, -0.269
- RRIRARPPRLPRPRPRPSALPRP — higher, 0.591
- RRIRMRPPRLPRPRPRPVVPPRP — lower, -0.107
- RRIRERPPRLPRPRPRPIHTPRP — lower, 0.0013
- RRIRGRPPRLPRPRPRPYHNPRP — lower, -0.267
- RRIRFRPPRLPRPRPRPVGLPRP — lower, 0.0115
- RRIRERPPRLPRPRPRPWYQPRP — lower, -0.219
- RRIRWRPPRLPRPRPRPIYHPRP — lower, -0.305
- RRIRCRPPRLPRPRPRPAILPRP — lower, -0.659
- RRIRMRPPRLPRPRPRPGRRPRP — higher, 0.724
- RRIRTRPPRLPRPRPRPCRRPRP — lower, -0.111
- RRIRWRPPRLPRPRPRPDKGPRP — lower, 0.0389
- RRIRLRPPRLPRPRPRPPIAPRP — within 0.2 log units, 0.192
- RRIRLRPPRLPRPRPRPDFHPRP — lower, -0.206
- RRIRRRPPRLPRPRPRPSTTPRP — lower, 0.00373
- RRIRIRPPRLPRPRPRPMGIPRP — lower, 0.000142
- RRIRWRPPRLPRPRPRPPYGPRP — lower, -0.0783
- RRIRTRPPRLPRPRPRPINVPRP — lower, -0.509
- RRIRGRPPRLPRPRPRPSTMPRP — within 0.2 log units, 0.21
- RRIRGRPPRLPRPRPRPWPNPRP — lower, -0.0526
- RRIRDRPPRLPRPRPRPNSWPRP — lower, -0.12
- RRIRKRPPRLPRPRPRPCMCPRP — lower, -0.0956
- RRIRQRPPRLPRPRPRPASFPRP — lower, 0.0572
- RRIRCRPPRLPRPRPRPRKTPRP — lower, 0.103
- RRIRTRPPRLPRPRPRPVDEPRP — lower, -0.146
- RRIRKRPPRLPRPRPRPMYFPRP — lower, -0.0354
- RRIRCRPPRLPRPRPRPSPDPRP — within 0.2 log units, 0.215
- RRIRDRPPRLPRPRPRPVQGPRP — lower, -0.01
- RRIRKRPPRLPRPRPRPSFYPRP — lower, -0.391
- RRIRQRPPRLPRPRPRPNFIPRP — lower, -0.402
- RRIRRRPPRLPRPRPRPGPDPRP — within 0.2 log units, 0.518
- RRIRFRPPRLPRPRPRPDISPRP — lower, -0.216
- RRIRSRPPRLPRPRPRPLDMPRP — lower, 0.0557
- RRIRSRPPRLPRPRPRPKAEPRP — within 0.2 log units, 0.213
- RRIRKRPPRLPRPRPRPWNPPRP — within 0.2 log units, 0.159
- RRIRARPPRLPRPRPRPIYKPRP — lower, -0.172
- RRIRARPPRLPRPRPRPDRWPRP — higher, 0.685
- RRIRARPPRLPRPRPRPWEWPRP — lower, 0.0233
- RRIRWRPPRLPRPRPRPYVFPRP — lower, -0.142
- RRIRCRPPRLPRPRPRPYSRPRP — lower, -0.0442
- RRIRGRPPRLPRPRPRPMDNPRP — lower, 0.12
- RRIRFRPPRLPRPRPRPHFTPRP — lower, -0.489
- RRIRVRPPRLPRPRPRPAFSPRP — lower, 0.104
- RRIRDRPPRLPRPRPRPGFEPRP — within 0.2 log units, 0.175
- RRIRQRPPRLPRPRPRPNNYPRP — lower, -0.53
- RRIRCRPPRLPRPRPRPKCHPRP — within 0.2 log units, 0.205
- RRIRDRPPRLPRPRPRPGKCPRP — lower, -0.105
- RRIRERPPRLPRPRPRPKDDPRP — lower, 0.104
- RRIRRRPPRLPRPRPRPHPCPRP — lower, 0.0156
- RRIRTRPPRLPRPRPRPKASPRP — lower, -0.0647
- RRIRERPPRLPRPRPRPAQFPRP — within 0.2 log units, 0.383
- RRIRNRPPRLPRPRPRPWIDPRP — lower, -0.0152
- RRIRTRPPRLPRPRPRPMWHPRP — lower, -0.391
- RRIRERPPRLPRPRPRPTTTPRP — lower, -0.0224
- RRIRRRPPRLPRPRPRPCYNPRP — lower, -0.41
- RRIRLRPPRLPRPRPRPCWRPRP — lower, 0.0285
- RRIRMRPPRLPRPRPRPKKLPRP — within 0.2 log units, 0.354
- RRIRTRPPRLPRPRPRPQNAPRP — lower, -0.12
- RRIRWRPPRLPRPRPRPSKRPRP — lower, 0.149
- RRIRARPPRLPRPRPRPYSCPRP — lower, -0.43
- RRIRIRPPRLPRPRPRPSIPPRP — lower, -0.867
- RRIRKRPPRLPRPRPRPKDTPRP — within 0.2 log units, 0.26
- RRIRQRPPRLPRPRPRPNSCPRP — lower, 0.0314
- RRIRWRPPRLPRPRPRPRYYPRP — lower, -0.0581
- RRIRWRPPRLPRPRPRPTKLPRP — within 0.2 log units, 0.156
- RRIRARPPRLPRPRPRPPGEPRP — within 0.2 log units, 0.381
- RRIRYRPPRLPRPRPRPKDPPRP — lower, -0.236
- RRIRHRPPRLPRPRPRPWPSPRP — lower, -0.00932
- RRIRIRPPRLPRPRPRPCMTPRP — lower, -0.337
- RRIRGRPPRLPRPRPRPNIEPRP — within 0.2 log units, 0.51
- RRIRERPPRLPRPRPRPKMRPRP — higher, 0.962
- RRIRGRPPRLPRPRPRPVEWPRP — lower, 0.0602
- RRIRRRPPRLPRPRPRPQRAPRP — within 0.2 log units, 0.226
- RRIRHRPPRLPRPRPRPWKMPRP — lower, 0.00115
- RRIRDRPPRLPRPRPRPNQAPRP — lower, -0.0261
- RRIRPRPPRLPRPRPRPKPNPRP — within 0.2 log units, 0.356
- RRIRTRPPRLPRPRPRPQDEPRP — lower, -0.152
- RRIRGRPPRLPRPRPRPFLHPRP — lower, 0.0811
- RRIRVRPPRLPRPRPRPPTGPRP — within 0.2 log units, 0.245
- RRIRLRPPRLPRPRPRPIREPRP — lower, -0.27
- RRIRKRPPRLPRPRPRPPDHPRP — higher, 0.973
- RRIRWRPPRLPRPRPRPSQWPRP — lower, -0.0949
- RRIRRRPPRLPRPRPRPFFPPRP — within 0.2 log units, 0.263
- RRIRQRPPRLPRPRPRPMNVPRP — lower, -0.0102
- RRIRSRPPRLPRPRPRPMRIPRP — lower, 0.0732
- RRIRRRPPRLPRPRPRPRYWPRP — lower, 0.088
- RRIRNRPPRLPRPRPRPHPMPRP — lower, 0.0281
- RRIRMRPPRLPRPRPRPVEQPRP — lower, 0.0366
- RRIRPRPPRLPRPRPRPPNHPRP — lower, 0.0555
- RRIRPRPPRLPRPRPRPIEEPRP — lower, -0.0376
- RRIRLRPPRLPRPRPRPGQSPRP — lower, 0.0614
- RRIRTRPPRLPRPRPRPEENPRP — lower, -0.0317
- RRIRRRPPRLPRPRPRPSHNPRP — lower, -0.379
- RRIRKRPPRLPRPRPRPNRNPRP — lower, -0.234
- RRIRFRPPRLPRPRPRPKGWPRP — higher, 0.589
- RRIRCRPPRLPRPRPRPTVAPRP — lower, 0.0998
- RRIRMRPPRLPRPRPRPMTVPRP — lower, 0.0944
- RRIRHRPPRLPRPRPRPLIDPRP — lower, -0.408
- RRIRPRPPRLPRPRPRPQDVPRP — lower, -0.373
- RRIRWRPPRLPRPRPRPWQGPRP — lower, -0.11
- RRIRVRPPRLPRPRPRPQMLPRP — lower, -0.158
- RRIRWRPPRLPRPRPRPAQVPRP — higher, 0.565
- RRIRNRPPRLPRPRPRPTVSPRP — lower, -0.268
- RRIRNRPPRLPRPRPRPDLCPRP — lower, -0.0418
- RRIRRRPPRLPRPRPRPWPVPRP — lower, 0.0907
- RRIRNRPPRLPRPRPRPRDSPRP — lower, 0.0829
- RRIRKRPPRLPRPRPRPCISPRP — lower, 0.0183
